Results: paper PMC11685440

Biological target: 6xHis-MBP-PmARF1^DBD (Penium margaritaceum AB-class ARF1 DNA-binding domain) (Penium margaritaceum)
Test: SEC-MALS; 6xHis-MBP-PmARF1^DBD at 1 mg/ml in 1x PBS, Superdex 200 Increase 10/300 GL, room temperature

stoichiometry N: 2
Substance: 6xHis-MBP-PmARF1^DBD (Penium margaritaceum AB-class ARF1 DNA-binding domain) (domain or fragment)
